# Data from the Immune Epitope Database (IEDB).
# Molecular target: HLA-A*02:01
# Test: IEDB peptide-MHC binding, cellular MHC/competitive/fluorescence; ≥ and ≤ were set here for values at or beyond the usual limits of such assays
# Settings: source organism: Vaccinia virus WR
row,Sequence,IC50
1,ATESDAIRT,10.8 µM
2,IVGLDLENL,14.2 µM
3,AVAVAAASST,51.7 µM
4,ALSDACKKIL,17.9 µM
5,TIGNQLYLT,18.3 µM
6,NTRDTQQHPI,≥ 70 µM
7,LTFLSGGDL,18.8 µM
8,DIIDFLEGAL,23.2 µM
9,ITFALKKLI,≥ 70 µM
10,LVTKYPMDNV,12.9 µM
11,DLVKSYSLI,≥ 70 µM
12,PVKRIIDSEV,33.8 µM
13,PVDDGPDDET,15.2 µM
14,SIVVELEPSL,7.93 µM
15,DVELFIKAL,≥ 70 µM
16,VVRRTMLSDI,8.52 µM
17,SIPLMKRLT,≥ 70 µM
18,TAVEHIPTM,15.9 µM
19,ITDAAVAVA,8.52 µM
20,IQETIRSDT,49.6 µM
21,VQLVDAIDNI,13.3 µM
22,QQALSSFHTT,29.1 µM

row,Sequence,IC50
1,ELTASGGKVL,≥ 70 µM
2,GINQEDGIII,≥ 70 µM
3,QARNIQKIT,6.7 µM
4,DQSIKIGDI,≥ 70 µM
5,SVEKVGINLV,50 µM
6,SVETITEKT,≥ 70 µM
7,YIRNTLTEKI,38.4 µM
8,LVITKLREHM,≥ 70 µM
9,AIKCEGLDV,13.6 µM
10,VIKCMIDEGA,9.87 µM
11,TMDGDKLSKL,≥ 70 µM
12,RINDDSKSI,13.4 µM
13,LIANIHNHMI,5.99 µM
14,FIKPPLITLT,≥ 70 µM
15,DANVVSSSTI,≥ 70 µM
16,LVNAIIDSA,15.6 µM
17,PIYYVQKQLV,18.7 µM
18,DAFSREYSMT,≥ 70 µM
19,QLKGFYMISL,9.02 µM
20,IIKKNDIVRV,48.4 µM
21,ELFIKALSDA,10.9 µM
22,IVRLNQCMSA,7.46 µM

row,Sequence,IC50
1,ELMPIRTDT,≥ 70 µM
2,SAKRITESIT,≥ 70 µM
3,PTRTLDTAI,≥ 70 µM
4,ETMPCVKKKA,≥ 70 µM
5,ITPDVIINST,≥ 70 µM
6,LTKIDTTHV,14 µM
7,QMNARGVKV,5.14 µM
8,VVKYLSGGGI,≥ 70 µM
9,KQDIVGLDL,14.2 µM
10,IVVELEPSLA,9.09 µM
11,EVFINDNGIM,≥ 70 µM
12,GASYISCTA,7.35 µM
13,IAMKVIQGI,7.73 µM
14,LITTMDGDKL,≥ 70 µM
15,FTVTNKEGV,10.3 µM
16,YVTLNASQYA,23.1 µM
17,PTNKLQAAVM,29.5 µM
18,HIIIVALTI,7.72 µM
19,HLRDQSIKI,7.25 µM
20,GIKEDETVST,41.7 µM
21,HIHKILTREM,16.2 µM
22,IVEHLRDQSI,≥ 70 µM

row,Sequence,IC50
1,VMETDRENA,8.08 µM
2,VVYNPSTMST,57.8 µM
3,DIYYNGNKML,19.6 µM
4,LIVRLNQCM,19.8 µM
5,EVRKYFCVKT,23.2 µM
6,DLENLYAVT,6.55 µM
7,CISQHQHLAI,11 µM
8,MTENVEEDLA,24.5 µM
9,KITFALKKLI,64.7 µM
10,TASGGKVLI,37.2 µM
11,EITELVVEYM,35.6 µM
12,TASGGKVLIT,≥ 70 µM
13,KLKYFLGSGA,7.19 µM
14,TQHPDYAILA,6.73 µM
15,IVWEKKSLVT,20.7 µM
16,LAGYILTVL,11.6 µM
17,KVTINNLKM,5.74 µM
18,DLVVLGKVTI,10.9 µM
19,SANEAAITDA,10.2 µM
20,LIKKPYRSI,59.4 µM
21,DLYNGGRIDM,29.5 µM
22,KVTINNLKMM,35.7 µM

row,Sequence,IC50
1,PIVISKALET,26.8 µM
2,YVESKLVDI,25.3 µM
3,QIHLYYNSNI,48.7 µM
4,HMLKLQARNI,24 µM
5,AAITDAAVA,18.6 µM
6,TLPNKSDVLI,5.32 µM
7,DVEDLLSYYV,5.16 µM
8,VVSRHLTNDA,≥ 70 µM
9,KIEPRNILI,8.32 µM
10,STLPNKSDVL,46.5 µM
11,IIHTGCSQVM,12.4 µM
12,IMSLNGKKHT,≥ 70 µM
13,AASPMLYQLL,16 µM
14,LLKDLFPKQT,≥ 70 µM
15,AIFTDASTVA,18.5 µM
16,PTLDNILGI,6.67 µM
17,KAVIEYDDI,37.6 µM
18,AAASSTHRKV,≥ 70 µM
19,GVSDLISTEI,41.8 µM
20,GTVINEDIV,35.7 µM
21,IQAKTKNFT,≥ 70 µM
22,KIAISSLNKL,36.6 µM

row,Sequence,IC50
1,STPMTEYII,≥ 70 µM
2,STMEDRPST,32.6 µM
3,TASSDSLQT,54.9 µM
4,IIERSKKFI,5.31 µM
5,LISMYCSKT,12.5 µM
6,EAVKDKNWTV,14.8 µM
7,CVDNHLGAT,52.1 µM
8,NTCLRCSKL,24.6 µM
9,KIKHKGMSFV,15.8 µM
10,QISQCQRINM,19 µM
11,TMSTPMTEYI,7.95 µM
12,TIKCSNLCT,8.78 µM
13,DIVSKLTFL,7.81 µM
14,TLSLSKQDI,11.7 µM
15,VIGASYISCT,17.8 µM
16,SQLSVLSSIT,11.5 µM
17,VTDTINTVL,13.6 µM
18,RTRGPLGIL,51.3 µM
19,TVSTIDGRI,≥ 70 µM
20,TMKIFYKHI,≥ 70 µM
21,FLDDSNKRKV,8.41 µM
